# Patent publication US9012420B2, “Aptamer for chymase, and use thereof” (Ribomic Inc., priority 2009, dated 2015)
# Oligonucleotides are written 5' to 3', each unit as a sugar letter and its base; * is a phosphorothioate linkage, no mark a phosphodiester; rarer units and linkages stand in square brackets, end groups in braces. Plain capitals give the bases only. r = 2'-OH (RNA); f = 2'-fluoro
# T1: chymase (recombinant, manufactured by SIGMA) (Homo sapiens, UniProt P23946)
# T1 construct: purchased SIGMA; host or cells: yeast
# T1 sequence (P23946 22-247): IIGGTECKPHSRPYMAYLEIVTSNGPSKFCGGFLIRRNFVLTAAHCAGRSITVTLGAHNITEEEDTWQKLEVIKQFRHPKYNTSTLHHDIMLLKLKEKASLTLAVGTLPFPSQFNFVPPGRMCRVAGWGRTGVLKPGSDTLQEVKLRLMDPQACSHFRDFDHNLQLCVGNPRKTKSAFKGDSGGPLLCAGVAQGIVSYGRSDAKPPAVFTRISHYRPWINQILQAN
# T2: chymase (recombinant) (UniProt P23946 P23946:22-247)
# T2 sequence: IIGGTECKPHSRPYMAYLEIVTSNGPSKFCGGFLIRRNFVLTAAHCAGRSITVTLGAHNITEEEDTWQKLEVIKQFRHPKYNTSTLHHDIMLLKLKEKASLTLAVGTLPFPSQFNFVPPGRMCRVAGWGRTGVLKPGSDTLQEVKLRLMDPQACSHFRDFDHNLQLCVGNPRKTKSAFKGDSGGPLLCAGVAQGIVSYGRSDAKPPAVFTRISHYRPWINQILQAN
# Key:
# [1] = target: T1, chymase (recombinant, manufactured by SIGMA); assay: Surface plasmon resonance (Biacore T100), chymase immobilized on CM5 chip, nucleic acid injected as analyte; assay type: binding; design: key to Binding activity as determined using Biacore: ++: a sequence that binds to chymase significantly more strongly than the negative control 40N; +: a sequence that binds to chymase equivalently compared with the negative control 40N; key to binding activity using Biacore: ++: significant binding to chymase than SEQ ID NO: 58 which is a negative control; +: similar binding level as SEQ ID NO: 58 which is a negative control; details: for binding activity using Biacore: Table 5, same manner as Example 4, compared with SEQ ID NO: 58; for Binding activity as determined using Biacore: Table 4, about 4000 RU chymase immobilized, nucleic acid 0.3 μM, solution C, compared with 40N
# Description: In another method, chymase is first immobilized onto a sensor chip, the amount immobilized being about 4000 RU. 20 μL of an aptamer solution for analyte, prepared at 0.01 μg/μL, is injected, and the binding of the aptamer to chymase is detected. An RNA containing a random nucleotide sequence of 30 or 40 nucleotides is used as a negative control.
# Whether these nucleic acids bind to chymase was determined by the surface plasmon resonance method. Measurements were taken using Biacore T100 (manufactured by GE Healthcare) as described below. About 4000 RU of chymase (recombinant, manufactured by SIGMA) was immobilized on the sensor chip surface of a CM5 chip, using an amine coupling kit. 20 μL of each nucleic acid, prepared at 0.3 μM, as an analyte was injected at a flow rate of 20 μL/min. Solution C was used as a running buffer. The method of evaluation used was the same as Example 1.
# All nucleic acids of SEQ ID NO: 58-68 were prepared by chemical synthesis. Whether these nucleic acids are bound to chymase was assessed by surface plasmon resonance method in the same manner as in Example 4. The inhibitory activity on chymase was measured in the same manner as in Example 3.
# All nucleic acids of SEQ ID NOs: 73-79, 56(8), 80, 56(10), 81, 56(13)-56(14), 83-87 were prepared by chemical synthesis. Whether these nucleic acids are bound to chymase was assessed by surface plasmon resonance method in the same manner as in Example 4.
# All nucleic acids of SEQ ID NO: 88-120, 121, 69, 122, 123, 70-72, 124-131 were prepared by chemical synthesis. Whether these nucleic acids are bound to chymase was assessed by surface plasmon resonance method in the same manner as in Example 4.
# [2] = target: T1, chymase (recombinant, manufactured by SIGMA); assay: Chymase inhibitory activity using synthetic substrate Suc-Ala-Ala-Pro-Phe-MCA; assay type: biochemical; details: same manner as Example 3
# Summary of the method: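 Human recombinant chymase (16.7 nM or 1.67 nM final) preincubated 5 min at 37° C., then added to nucleic acid (0.0027–2 μM serial dilutions) and 100 μM substrate in solution C. AMC fluorescence (ex 380/em 460 nm) followed 5 or 30 min at 37° C.; slope gives initial velocity, inhibition versus no-inhibitor control yields IC50.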
# chymase (recombinant) [3] = target: T2, chymase (recombinant); assay: inhibition; SPR ++; details: tags: SIGMA, expressed in yeast
# Description: (§1) Here, Suc is a protecting succinyl group, and MCA is a 4-methylcoumaryl-7-amide group; upon cleavage of the C-terminal side of phenylalanine, AMC (7-amino-4-methyl-coumarine) is released. By detecting the fluorescence of this AMC, the enzyme activity of chymase can be determined. The assay was performed using a 96-well plate (F16 Black Maxisorp Fluoronunc, manufactured by Nunc), with a reaction mixture volume of 100 μL, in solution C as a buffer solution. First, each nucleic acid was serially diluted to 0.0027-2 μM concentrations in solution C to obtain 50 μL solutions. After 10 μL of the 1 mM substrate prepared in solution C was added thereto, the plate was set to the microplate reader SpectraMax190 (manufactured by Molecular Devices Corporation), and incubated at 37° C. for 5 minutes. Separately, 0.05 μg (or 0.005 μg) of chymase (recombinant, manufactured by SIGMA) was diluted in solution C to obtain a 40 μL chymase solution, and incubated at 37° C. for 5 minutes. The chymase solution was added to the mixture of the nucleic acid and substrate to initiate an enzyme reaction. The final chymase concentration in the reaction mixture was 16.7 nM (or 1.67 nM), the final substrate concentration being 100 μM. The plate containing the reaction mixture was set to the microplate reader SpectraMax190 (manufactured by Molecular Devices Corporation), and examined for time-dependent changes in the fluorescence intensity at 37° C. for 5 minutes (or 30 minutes) (excitation wavelength 380 nm, detection wavelength 460 nm). A linear approximation of the increase in the fluorescence of the AMC released from the substrate by chymase activity was generated, and its slope was taken as the initial velocity […]. For control, samples were treated and analyzed in the same manner in two cases: use of a 30N or 40N (a nucleotide of 30 or 40 consecutive bases represented by N; N is A, G, C or T) nucleic acid pool (negative control), and use of chymostatin, a known chymotrypsin-like serine protease inhibitor (positive control). Taking the initial reaction velocity without the nucleic acid and inhibitor (V_0) as a 100% enzyme activity, the inhibitory rate of each test substance was calculated using the following equation: […]
# The inhibitory activity on chymase was measured in the same manner as in Example 3.
# chymase (recombinant) [4] = target: T2, chymase (recombinant); assay: inhibition; SPR ++; details: tags: SIGMA, expressed in yeast; remark: listed apart in the source
# Description: as §1
# [5] = Table 5, mean value of two measurements
# [6] = Table 4, mean value for 2 to 3 measurements
Molecule,IC50 (chymase (recombinant) [3]),IC50 (chymase (recombinant) [4]),other results
"59 (GGGUUAGAUAGAGAUAAAAACCC; 2'-fluoro at CU, RNA at AG, backbone not given here) [compound 59]",,,"binding activity using Biacore [1]: ++; IC50 [2, 5]: 38 ± 9 nM"
"51 (CGUUACAUAAUGUAUAUACCAGGGUAACUAAACAUAGAAGAGCGG; 2'-fluoro at CU, RNA at AG, backbone not given here) [compound 51]",,,"Binding activity as determined using Biacore [1]: ++; IC50 [2, 6]: 24 ± 9 nM"
"49 (GGUUCUACAGAUAGAGAUAAAGUAGAACC; 2'-fluoro at CU, RNA at AG, backbone not given here) [compound 49]",,,"Binding activity as determined using Biacore [1]: ++; IC50 [2, 6]: 117 ± 66 nM"
64 (rGfUfCrAfCrArGrAfUrArGrArGfUfUrArArArGfUrGrAfC) [compound 64],,,"binding activity using Biacore [1]: ++; IC50 [2, 5]: 20 ± 5 nM"
"GGGUUAGAUAGAGUUAAAAACCC (ssRNA, 2'-F pyrimidines; PS between U5 and A6) [56(18)]",12 nM,,
"GGGUUAGAUAGAGUUAAAAACCC (ssRNA, 2'-F pyrimidines; 2'-OMe G1-G3) [56(2)]",24 nM,,
"SEQ 25 (ssRNA, 2'-F pyrimidines) RNA: GGGACGGUAGGAAUUCAGCUGACUCCAAUGCACACGUAGAUAGAGUUAAAACGUUGCAUAGAAGAGCGGCCGC",,79 nM,
"GGGUUAGAUAGAGUUAAAAACCC (ssRNA, 2'-F pyrimidines; 2'-OMe A18) [56(11)]",28 nM,,
"GGGUUAGAUAGAGUUAAAAACCC (ssRNA, 2'-F pyrimidines; 5' and 3' idT) [56(1)]",26 nM,,
"SEQ 26 (ssRNA, 2'-F pyrimidines) RNA: GGGACGGUAGGAAUUCGUCGAUUCUACAGAUAGAGAUAAAGUAGAAUUUAACAAAACAUAGAAGAGCGGCCGC",,106 nM,
"SEQ 17 (ssRNA, 2'-F pyrimidines) RNA: GGGACGGUAGGAAUUCCGUUCGCAGAAACGAACUUUUAAAAAAUGUACGUGGGAGCACAUAGAAGAGCGGCCGC",,92 nM,
"SEQ 6 (ssRNA, 2'-F pyrimidines) RNA: GGGACGGUAGGAAUUCUACGGUCUGUGUGAAAUUGAAACACACAAAGAACAAUAGACAUAGAAGAGCGGCCGC",,456 nM,
"SEQ 8 (ssRNA, 2'-F pyrimidines) RNA: GGGACGGUAGGAAUUCUACGGUCUGUGUGAAAUUGAAACACACAAAGAACAAUAAACAUAGAAGAGCGGCCGC",,453 nM,
"GGGUUAGAUAGAGUUAAAAACCC (ssRNA, 2'-F pyrimidines; 2'-OMe A16,A17) [56(5)]",29 nM,,
"SEQ 30 (ssRNA, 2'-F pyrimidines) RNA: GGGACGGUAGGAAUUCGUCCCUCUUGUCUAUUUUGCAGAUAGACUUAAAGCAAACAUAGAAGAGCGGCCGC",,147 nM,
"GGGUUAGAUAGAGUUAAAAACCC (ssRNA, 2'-F pyrimidines; 2'-OMe A12) [56(9)]",111 nM,,

Molecule,IC50 (chymase (recombinant) [3]),IC50 (chymase (recombinant) [4]),other results
"GGGUUAGAUAGAGUUAAAAACCC (ssRNA, 2'-F pyrimidines; PS between A6 and G7) [56(19)]",8 nM,,
"SEQ 15 (ssRNA, 2'-F pyrimidines) RNA: GGGACGGUAGGAAUUCCCAGAAAAUAAAUUCCGAAGAAAACAACAAUUUUUGCAAACAUAGAAGAGCGGCCGC",,285 nM,
"SEQ 18 (ssRNA, 2'-F pyrimidines) RNA: GGGACGGUAGGAAUUCGAACGACAAAUUAUAGAACUUCGUUUGACAUUCCACACCACAUAGAAGAGCGGCCGC",,58 nM,
"SEQ 14 (ssRNA, 2'-F pyrimidines) RNA: GGGACGGUAGGAAUUCUCGUUCCUGACAGCAUUUGAGAUAGAUUUAAACAAACGCACAUAGAAGAGCGGCCGC",,61 nM,
"SEQ 23 (ssRNA, 2'-F pyrimidines) RNA: GGGACGGUAGGAAUUCAUAUGUACUCCGUCCUGACAAAAUGUCAAUGACAAACGUUCAUAGAAGAGCGGCCGC",,238 nM,
"SEQ 19 (ssRNA, 2'-F pyrimidines) RNA: GGGACGGUAGGAAUUCCCACUGCAAUUCAGCAGAAAAAAUUCCGAAAAACACACACCAUAGAAGAGCGGCCGC",,163 nM,
"GGGUUAGAUAGAGUUAAAAACCC (ssRNA, 2'-F pyrimidines; 2'-OMe A10) [56(4)]",27 nM,,
"GGGUUAGAUAGAGUUAAAAACCC (ssRNA, 2'-F pyrimidines; 2'-OMe A8) [56(7)]",38 nM,,
"GGGUUAGAUAGAGUUAAAAACCC (ssRNA, 2'-F pyrimidines; 2'-OMe G7) [56(6)]",31 nM,,
"SEQ 5 (ssRNA, 2'-F pyrimidines) RNA: GGGACGGUAGGAAUUCCCACUUGUCUUUGAGGCAAGAAAUUGUAUUCCGAAGAAGCAUAGAAGAGCGGCCGC",,80 nM,
"SEQ 24 (ssRNA, 2'-F pyrimidines) RNA: GGGACGGUAGGAAUUCCCUUCAUAGUAGAAUGUUGGUUUCUACAAAAGCGACAAGCAUAGAAGAGCGGCCGC",,92 nM,
"SEQ 11 (ssRNA, 2'-F pyrimidines) RNA: GGGACGGUAGGAAUUCCCGACACGAAAUGUGUGAUUAAUUCCGAACAACAAAGUAACAUAGAAGAGCGGCCGC",,145 nM,
"SEQ 12 (ssRNA, 2'-F pyrimidines) RNA: GGGACGGUAGGAAUUCGCCGUCAACGUUACAUAAUGUAUAUACCAGGGUAACUAAACAUAGAAGAGCGGCCGC",,128 nM,
"GGGUUAGAUAGAGUUAAAAACCC (ssRNA, 2'-F pyrimidines; 2'-OMe A19,A20) [56(3)]",25 nM,,
"SEQ 9 (ssRNA, 2'-F pyrimidines) RNA: GGGACGGUAGGAAUUCCCGAAAAGCAACAAGCUUGCUAAAAUGAUUCCGAAAAAACACAUAGAAGAGCGGCCGC",,273 nM,
